From patent US20170166631A1 (published 2017)
Where two headings read alike, the source gives them in different places.

What was measured:
Experiment in all cases: ELISA
[1] = molecular target: T1, HD49 (huntingtin exon 1 protein with 49 polyQ repeats after cleavage of the GST tag; aggregation reaction) (human, UniProt P42858 1-88)
T1 chain: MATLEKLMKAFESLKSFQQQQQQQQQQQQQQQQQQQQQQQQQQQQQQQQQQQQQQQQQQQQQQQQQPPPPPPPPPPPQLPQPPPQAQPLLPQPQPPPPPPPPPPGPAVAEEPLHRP

[2] = molecular target: T2, GST-HttExon1Q21 (recombinant huntingtin exon 1 protein with 21 polyQ repeats fused to an N-terminal GST tag) (;human, UniProt P08515 1-218 = GST; P42858 1-88)
Target sequence in this assay (P08515 1-218, tags or fused parts left off): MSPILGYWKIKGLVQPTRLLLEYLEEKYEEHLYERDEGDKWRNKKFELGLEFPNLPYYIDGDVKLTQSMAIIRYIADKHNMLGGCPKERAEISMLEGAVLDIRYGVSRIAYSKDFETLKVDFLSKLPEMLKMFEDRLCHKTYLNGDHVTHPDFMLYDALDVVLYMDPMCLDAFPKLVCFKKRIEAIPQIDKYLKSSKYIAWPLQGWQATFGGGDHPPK

[3] = molecular target: T1, HD49 (huntingtin exon 1 protein with 49 …)
[4] = molecular target: T2, GST-HttExon1Q21 (recombinant huntingtin …); remark: listed apart in the source
[5] = molecular target: T1, HD49 (huntingtin exon 1 protein with 49 …)
[6] = molecular target: T2, GST-HttExon1Q21 (recombinant huntingtin …); remark: listed apart in the source
Target sequence in this assay (P08515 1-218, tags or fused parts left off): as above

[7] = molecular target: T3, HD21 (huntingtin exon 1 protein with 21 polyQ repeats after cleavage of the GST tag; aggregation reaction) (human, UniProt P42858 1-88)
T3 chain: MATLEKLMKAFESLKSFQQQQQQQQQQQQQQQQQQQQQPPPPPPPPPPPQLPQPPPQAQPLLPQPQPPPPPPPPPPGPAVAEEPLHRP

[8] = molecular target: T1, HD49 (huntingtin exon 1 protein with 49 …)
[9] = molecular target: T2, GST-HttExon1Q21 (recombinant huntingtin …); remark: listed apart in the source
[10] = molecular target: T3, HD21 (huntingtin exon 1 protein with 21 …)
[11] = molecular target: T4, BSA-coupled synthetic peptide of the P-rich domain sequence of huntingtin exon 1 (coupled to BSA)
T4 peptide: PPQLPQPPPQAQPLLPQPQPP

[12] = molecular target: T3, HD21 (huntingtin exon 1 protein with 21 …)
[13] = molecular target: T1, HD49 (huntingtin exon 1 protein with 49 …)
[14] = molecular target: T2, GST-HttExon1Q21 (recombinant huntingtin …); remark: listed apart in the source
[15] = molecular target: T3, HD21 (huntingtin exon 1 protein with 21 …)
[16] = molecular target: T2, GST-HttExon1Q21 (recombinant huntingtin …); remark: listed apart in the source
[17] = molecular target: T3, HD21 (huntingtin exon 1 protein with 21 …)

B1: NI-302.4A6 (antibody, V domains shown)
VH: EVQLVESGGGLVQPGGSLRLSCAASGFTFSAYAMSWVRQAPGKGLEWVSTISGSGGSTYYADSVKGRFSISRDNSKNTLYLQMNSLRAEDTAVYFCAKVTTELYGANSYYYYMDVWGKGTTVTVSS
VL: EIVLTQSPGTLSLSPGERATLSCRASQSVVSRYLAWYQQKPGQAPRLLIYGASSRATGIPDRFSGSGSGTDFTLTISRLEPEDFAMYYCQLYGNSQTFGQGTKVEIK
EC50 [1]: 3000 pM
EC50 [2]: 3000 pM
EC50 [3]: 3000 pM
EC50 [4]: 3000 pM

B2: NI-302.52C9 (antibody, V domains shown)
VH: EVQLVQSGGGLVQPGGSLRLSCAGSGFTVSDTYMSWVRQAPGKGLEWVSGIHAGGETYYADSVKGRFTISRDNSKNTLYLQMNRLTPEDTAVFYCARHYYGNDDDTDYWGQGTLVTVSS
VL: DVVMTQSPLSLPVTPGEPASISCRSSQSLLHSNGYNYLDWYVQKPGQSPQLLIYLGSTRASGVPDRFSGSGSGTDFTLKISRVEAEDVGVYYCLQAQQIPWTFGQGTKVEIK
EC50 [5]: 30000 pM
EC50 [6]: 10200 pM
EC50 [7]: 28000 pM

B3: NI-302.31F11 (antibody, V domains shown)
VH: EVQLVESGGGLIQPGGSLRLSCAASGFTVSSTYMSWVRQAPGKGLECVSVIFSGADTYYADSVKGRFTVSRDNSKNTLFLQMNSLRVEDTATYYCVRHYYGSDLPSDFWGQGTLVTVSS
VL: DVVMTQSPLSLPVAPGEPASISCRSSQSLLYSNGYNYLDWYLQKPGKPPQLLVYLGSDRASGVPDRFSGSGSGKDFTLNISRVEAEDVGVYYCMQGLQSPWTFGQGTKLEIK
EC50 [8]: 600 pM
EC50 [9]: 900 pM
EC50 [10]: 4300 pM
EC50 [11]: 500 pM
EC50 [1]: 600 pM
EC50 [2]: 900 pM
EC50 [12]: 4300 pM

B4: NI-302.74C11 (antibody, V domains shown)
VH: EVQLVQSGTEVQKPGASVKVSCKASGYSFTGYFLHWVRQAPGQGLEWMGWINPNSGDTNYAEKFRGRIIMTRDTSVSTAHMELSSLRFDDTALYYCTREAPDPGAETDVWGQGTTVTVSS
VL: QSVLTQPPSVSVSPGQTARITCSGDAVPKQYIYWYQQKPGQAPILVIYKDTQRPSGIPERFSGSNSGTTVTLTITGVQADDEGDYYCQSADSSATWVFGGGTKLTVL
EC50 [8]: 500 pM
EC50 [9]: 500 pM
EC50 [10]: 500 pM
EC50 [1]: 500 pM
EC50 [2]: 500 pM
EC50 [12]: 500 pM

B5: NI-302.8M1 (antibody, V domains shown)
VH: EVQLVQSGAEVKKPGASVKVSCKASGYTFTIYYMHWVRQAPGQGLEWMGGISPSGAHTMYAQNFQGRVTVTRDTSTSTVYMELSSLRSEDTAVYYCARGSTVTNYRPFDYWGQGTLVTVSS
VL: DIQMTQSPSSLSASVGDRVTITCRASQDISNYLAWYQQKPGKVPKLLIFAASTLQSGVPSRFGGSGSGTDFTLTISSLQPEDVATYYCQNYNSGPPPFGPGTKVDIK
EC50 [1]: 3 pM
EC50 [2]: 2 pM
EC50 [3]: 3 pM
EC50 [4]: 2 pM

B6: NI-302.55D8 (antibody, V domains shown)
VH: QVQLVQSGSEVKKPGASVKVSCKASGYTFTDYYIHWVRQAPGQGLEWMGRINPNNGGTNYAQNFQGWVTMTRDTSISTAYMELSRLRSDDTAVYYCARVGGELLREGGYHYYMDVWGKGTTVTVSS
VL: QSVLTQPPSVSGAPGQRVTISCTGNSSNIGAGYDVHWYQQLPGTAPKLLIFDNTNRPSGVPDRFSGSKSGTSASLAITGLQAEDEANYHCQSYDNSLSGSWVFGGGTKLTVL
EC50 [13]: 1700 pM
EC50 [14]: ~200 pM
EC50 [15]: 1200 pM
EC50 [5]: 1700 pM
EC50 [6]: 200 pM
EC50 [7]: 1200 pM

B7: NI-302.12H2 (antibody, V domains shown)
VH: EVQLVQSGGGLVQPGGSLRLSCEASGFTFSNYAMGWVRQAPGKGLEWVSVISGTGGSTYYADSVKGRFTISRDNSMNTLYLQMNSPRADDTAVYYCAKDLRKISGPLYYYGMDVWGQGTTVTVSS
VL: EIVLTQSPGTLSLSPGERATLSCRASQSVSSGYLAWYQQKPGQAPRLLIYGASTRATGIPDRFSGSGSGTDFTLTISRLEPEDFAVYYCQHYGASSYTFGQGTKLEIK
EC50 [1]: 40 pM
EC50 [2]: 40 pM
EC50 [3]: 40 pM
EC50 [4]: 40 pM

B8: NI-302.15F9 (antibody, V domains shown)
VH: EVQLVESGGGLVTPGGSLRLSCEASGFLFKNSSMNWVRQTPGKGLEWVSSIDTSATNYKYYADSVKGRFTISRDDATNSLYLQMNSLRADDTATYYCARGYYTPRDFDYWGQGTLVTVSS
VL: DVVMTQSPQTLSVSLGQAASISCRSSQSLLYRDNNTYLNWFHQRPGQSPRRLIYRASDRDSGVPDRFSGGGSGTDFTLKISGVEAEDVGTYYCMQGTHWPRTFGQGTKVEIK
EC50 [1]: 6000 pM
EC50 [2]: 11000 pM
EC50 [12]: 35000 pM

B9: NI-302.7D8 (antibody, V domains shown)
VH: QVQLVQSGSELKKPGASVKVSCKASGYNFNNYAINWLRQAPGQGLEWMGWINTITGHPTYAQGFKGRFVFSLDTSVSTAYLQISSLKPEDTAVYYCARTYSNYGEFDYWGQGTLVTVSS
VL: QSALTQPASVSGSRGQSITISCTGTSSDVGSYNLVSWYQQYPGKAPKLIIHEGSERPSGVSNRFSGSKSGNTASLTISGLQAEDEADYYCCSYAGTTTFVLFGGGTKLTVL
EC50 [2]: 51000 pM
EC50 [12]: > 100000 pM
EC50 [16]: 51000 pM
EC50 [17]: > 100000 pM

B10: NI-302.8F1 (antibody, V domains shown)
VH: EVQLVESGGGLVKPGGSLTISCAASGFTFSNAWMNWVRQAPGKGLEWVGHIRTQAEGGTSDYAAPVKGRFTISRDDSKNTLYLQMNSLKTEDTAVYYCIPPPYYYYYGLDVWGQGTTVTVSS
VL: QSALTQPASVSGSPGQSITISCTGASSDVGTYDLVSWYQQHPGKAPKLIIYEVNKRPSGVSYRFSASKSANTASLTISGLQAEDEAEYYCCSYAGYSTVFGGGTKLTVL
EC50 [5]: 1900 pM
EC50 [6]: 800 pM
EC50 [7]: 1600 pM

B11: NI-302.18A1 (antibody, V domains shown)
VH: QLQLQESGPGLVKPSEALSLTCTVSGGSITTDYYYWGWIRQSPGKGLEWVGTIYFGGATYYNPSLRNRVSISVDTSNTRLSLRLISLSAADTAVYYCARVGYLDRSGLLVGQGTLVTVSS
VL: EIVLTQSPLSVPVTPGEPASISCRSSQSLLHNNGYNYLDWYLKKPGQSPQLLIYLGSTRASGVPDRFSASGSGTDFTLEISRVEAEDVGVYYCMQALQTPPTFGRGTKVEIK
EC50 [5]: 30 pM
EC50 [6]: 40 pM
EC50 [7]: 20 pM

B12: NI-302.6N9 (antibody, V domains shown)
VH: EVQLVESGGDLVQPGGSLRLSCVVSGFTFSSYAMTWVRQAPGKGLAWVSTISATGGSTFYTDSVRGRFTISRDNSKNTLYLQMNSLRTDDTAIYYCVKDLFGVDTSYYGMDVWGQGTTVTVSS
VL: EIVLTQSPGTLSLSPGERATLSCRPSQSVSGRYVAWYQQKPGQAPRLLFYAASNRAIGIPDRFSGSGSGTDFTLTISRLEPEDFAVYYCQHYGASSYTFGPGTKVDIK
EC50 [8]: 190 pM
EC50 [9]: 240 pM
EC50 [10]: 210 pM
EC50 [1]: 190 pM
EC50 [2]: 240 pM
EC50 [12]: 210 pM
